Experimental findings from US7648964B2, “Use of lacritin in promoting ocular cell survival” (University of Virginia Patent Foundation, priority 2004, dated 2010) are described below.

Test [1] relates to 48 kDa band in rat lacrimal cells. Kind of test: Tyrosine phosphorylation of 48 kDa band, rat lacrimal cells. It is filed as cell-based. On the procedure: Freshly isolated rat lacrimal acinar cells, and HSG (human salivary gland) ductal and HCE (human corneal epithelial) cell lines were used to study lacritin function. For secretion studies, rat acinar cells were plated serum-free overnight on wells co-coated with 0.05 μM laminin 1 (to ensure adhesion) and 0 to 20 μM lacritin, or alternatively with laminin-1 (0.05 μM) and treated the next day with serum-free medium containing 0 to 162 ng/ml of soluble lacritin for four hours. Unstimulated and stimulated (carbachol 10^−4 M/VIP 10^−8 M) secretions were then collected, assessed (peroxidase assay) and normalized to μg cellular DNA. To study tyrosine phosphorylation, overnight serum-free cultures of both rat lacrimal acinar and HSG cells were washed and treated with 10 ng/ml of soluble lacritin for 0.5, 2.5, 10, and 30 minutes. Py(20) anti-phosphotyrosine antibody immunoprecipitation of cell lysates was then examined in Western blots of 7% SDS PAGE gels using Py(20) and ECL for detection. […] Using an inverted Zeiss 510 LSM for visualization, 50 second baseline images were first recorded. While the laser was running, lacritin was added (final concentration 4 and 40 ng/ml) and the response continually monitored every 786 msec for a minimum of 200 sec.

In test [2] the test system is FAS/APO-1. As to the kind of experiment: Antibody array screen, salivary ductal cells. It is filed as cell-based, human. The note with it: lacritin 10 ng/ml, 1 minute; tyrosine phosphorylation as gauge. On the procedure:
(§1) Lacritin's function in cell survival was first assessed in an antibody array screen. Serum-free cultures of salivary ductal cells were treated either with recombinant lacritin at 10 ng/ml or an equal volume of 1×PBS (dialysis medium for recombinant lacritin) for 1 minute.

For test [3], the system named is bcl-2. As to the kind of experiment: Antibody array screen, salivary ductal cells. It is filed as cell-based, human. Conditions: lacritin 10 ng/ml, 1 minute; tyrosine phosphorylation as gauge. On the procedure:
as §1

B1: lacritin: recombinant human lacritin from E. coli; mature 119 residue fragment (SEQ ID NO:10) of native lacritin SEQ ID NO:4 (protein, listed as Homo sapiens)
chain: EDASSDSTGADPAQEAGTSKPNEEISGPAEPASPPETTTTAQETSAAAVQGTAKVTSSRQELNPLKSIVEKSILLTEQALAKAGKGMHGGVPGGKQFIENGSEFAQKLLKKFSLLKPWA
With B1, the “tyrosine phosphorylation of a 48 kDa band” value in test [1] was “promoted the transient tyrosine phosphorylation”. The “change in FAS/APO-1 levels” value in test [2] was −81%. Besides, the “increase in bcl-2 tyrosine phosphorylation” value in test [3] is 11%.
